From patent US10233255B2, “Antibody therapeutics that bind STAT3” (Sorrento Therapeutics, Inc., priority 2016, dated 2019)
Entries after “also recorded” stand apart in the source; their conditions may differ.

How the values were obtained:
[1] = system: MCF-10A cells; assay: Accumulation / internalization of antibody conjugate in MCF-10A cells (fluorescence imaging); format: cell-based, human; conditions: 30 minutes pretreatment, FIG. 14
[2] = molecular target: T1, STAT3 (Homo sapiens, UniProt P40763); assay: Cell binding assay on fixed, permeabilized human cells (PE anti-human IgG, flow cytometry); parameters: endogenous in cells; host or cells: MDA-MB-468 (also given as MDA-MB-435), U251, HeLa
Procedure: (§1) Next, the binding of the candidate anti-STAT3 antibodies to cellular targets was tested in cell binding assays using MDA-MB-435 breast cancer cells and U251 cells. The cells were seeded overnight in a 96 well plate, then fixed with PFA and permeabilized with methanol. Cells were incubated with serial dilutions of the anti-STAT3 antibody candidates ST1A5, ST3G12 and ST5G12 for one hour and 30 minutes. Following incubation, the cells were washed and incubated for 30 minutes with phycoerythrin (PE) conjugated anti-human IgG. Fluorescence was measured on an Intellicyte high-throughput flow cytometry analyzer. […] Bevacizumab (Avastin), a monoclonal antibody that inhibits vascular endothelial growth factor A (VEGF-A) was used as a negative control.
(§2) An isotype control was used as a negative control. The experimental procedure was the same as described above for FIGS. 3A and 3B.

[3] = system: U251 cells; assay: Accumulation / internalization of antibody conjugate in U251 cells (fluorescence imaging); format: cell-based, human; conditions: 20 ug/mL, 2 hours at 37° C.
Procedure: The same experiments were repeated in the U251 glioblastoma cell line, which also has high levels of STAT3 activity, as described in FIG. 7A. U251 cells were treated with 10 ug/ml of ST3G12-PS antibody conjugate compound 901 in increasing proportions of human serum (1%, 5%, 10% and 20%), for 90 minutes at 37° C. Cells were then fixed, permeabilized and stained with anti-human IgG Alexa546. […] MCF-10A, a normal human mammary epithelial cell line with low levels of STAT3 activity (STAT3 low), was described in FIGS. 7A and 7B. This cell line was also tested according to the above protocol. […] The results of another experiment that was performed to determine accumulation of anti-STAT3 antibody conjugate (e.g. compound 901) are shown in FIG. 7C.
Experiments were carried out to confirm that the ST3G12-PS antibody conjugate (compound 901) was penetrating the cells. Briefly, previously cleaned glass coverslips were coated with collagen for 2 hours at 37° C. 100,000 U251 cells were seeded on the coverslips. Media was removed, and cells were rinsed once with fluorobrite. Next, 20 ug/mL of the specified antibody was added for 2 hours at 37° C. […] In FIG. 10E, red fluorescence indicates the plasma membrane, blue fluorescence indicates the nuclei and green florescence represents the intracellular accumulated ST3G12-PS antibody conjugate compound 901a. […]

[4] = Pharmacokinetics in athymic nude mice; conditions: administered intravenously
Description: (§3) The pharmacokinetic properties of the anti-STAT3 antibody conjugates were examined in athymic nude mice.

[5] = system: Human colon cancer HCT116 cells; assay: Penetration of 3D tumor spheroids, HCT116 cells; format: cell-based; conditions: alexa fluor 488 labeled, FIG. 18C
Procedure: Next, experiments were carried out to determine the effect of the STAT3 antibody conjugate on penetration of tumor cells and on tumor cell growth in a three-dimensional (3D) model. 3D in vitro models, such as a tumor spheroid model, have been used in cancer research as an intermediate model between in vitro cancer cell line cultures and in vivo tumor. Human colon cancer HCT116 cells were grown in a 3D tumor spheroid model in a ULA (ultra low attachment) plate, and treated with alexa fluor 488 dye labeled anti-STAT3 monoclonal antibody or alexa fluor labeled anti-STAT3 antibody conjugate (compound 901) for one hour to initiate the uptake. Thereafter, spheres were imaged every 10 min for the next 80 hours with ImageExpress. FIG. 18C are images that show detection of the alexa fluor. […] Next, the effect of the anti-STAT3 antibody conjugate (compound 901) on the growth of 3D tumor spheroids was examined DU145 human prostate cancer cells were seeded in ULA plate. Spheres were allowed to form for 72 hours then treated with the indicated antibodies for additional 5 days. Growth was monitored by ImageXpress HCS confocal microscopy (FIG. 19A). CTG assay was used to determine percent viability in FIG. 19B and percent killing in FIG. 19C. Experiments were done in triplicate wells. Error bars represent one standard deviation.

[6] = molecular target: GST protein (Schistosoma japonicum, UniProt P08515); assay: Biacore binding to GST protein (specificity control)
[7] = system: cellular antigens in U251 cells; assay: Cell binding of naked versus PS-conjugated antibody in U251 cells (HTFC); parameters: species or system human; conditions: permeabilized U251 cells, FIG. 4
Procedure: Cell binding of naked anti-STAT3 ST3G12 antibodies (ST3G12) versus compound 901 (ST3G12-PS) was assessed in U251 cells. Cells were lifted, permeabilized and incubated with increasing amounts of naked anti-STAT antibodies and PS anti-STAT antibody (compound 901) in PBS+/−2% fetal bovine serum (FBS). After 45 minutes at room temperature, cells were washed twice and incubated with phycoerythrin (PE) conjugated-anti-human IgG for 20 minutes at room temperature in the dark. Cells were then washed and analyzed by high throughput flow cytometry (HTFC). The results are shown in FIG. 4 for assessment of antibody binding to U251 cells.

[8] = molecular target: T2, mouse STAT3 (Mus musculus, UniProt P42227); assay: Cell binding assay on fixed, permeabilized mouse cell lines (flow cytometry); conditions: FIG. 3C
T2 construct: endogenous in cells; host or cells: CT-26, MC-38
Procedure: as §1, §2

[9] = system: STAT3 phosphorylation; assay: IL-6 stimulated STAT3 phosphorylation ELISA on cell lysates; format: cell-based, human; conditions: overnight antibody, IL-6 10 or 40 ng/ml for 20 minutes
Procedure: Normal breast epithelial cells (MCF-10A) and ER+ breast cancer cells (MCF-7) were treated with naked ST3G12 antibody and conjugated ST3G12-PS antibody (compound 901) (shown as “OS-STAT3” in FIGS. 8A and 8B) to determine the effect on STAT3 phosphorylation. Cells were pre-treated overnight with antibody, and then stimulated with various concentrations of IL-6 for 20 minutes (10 ng/ml or 40 ng/ml). IL-6 is a STAT3 activator. Cells were then lysed and the protein lysates were subjected to ELISA to determine the phosphorylation status. […] “OS-AIP” refers to an oligosaccharide conjugated bacterial AIP protein, used as a control.

[10] = mouse, in vivo, iv
Description: as §3

[11] = molecular target: T1, STAT3; assay: Biacore T200 affinity measurement, captured antibody vs recombinant human STAT3-GST; format: binding
Procedure: Biacore T200 was used to measure the affinity of anti-STAT and anti-STAT-phosphorothioate (PS) antibody (compound 901) to human STAT3. Anti-human Fc antibody (GE, BR-1008-39) was immobilized on a CM5 sensor chip to approximately 1000 RU using standard NHS/EDC coupling methodology. Antibodies (approximately 10 ug/ml) were captured for 60 seconds at a flow rate of 10 ul/min Recombinant human STAT3-GST was serially diluted 2-fold into running buffer (HBS-EP+, starting from […]). All measurements were conducted at a flow rate of 30 ul/min Surfaces were regenerated with 3M MgCl2 (from human antibody kit) for 60 seconds. A 1:1 (Langmuir) binding model was used to fit the data. The results are shown in Table 2, below for anti-STAT3 antibody, ST3G12, and the conjugated anti-STAT3 antibody, ST3G12-PS (compound 901).

T1 sequence (P40763 whole entry): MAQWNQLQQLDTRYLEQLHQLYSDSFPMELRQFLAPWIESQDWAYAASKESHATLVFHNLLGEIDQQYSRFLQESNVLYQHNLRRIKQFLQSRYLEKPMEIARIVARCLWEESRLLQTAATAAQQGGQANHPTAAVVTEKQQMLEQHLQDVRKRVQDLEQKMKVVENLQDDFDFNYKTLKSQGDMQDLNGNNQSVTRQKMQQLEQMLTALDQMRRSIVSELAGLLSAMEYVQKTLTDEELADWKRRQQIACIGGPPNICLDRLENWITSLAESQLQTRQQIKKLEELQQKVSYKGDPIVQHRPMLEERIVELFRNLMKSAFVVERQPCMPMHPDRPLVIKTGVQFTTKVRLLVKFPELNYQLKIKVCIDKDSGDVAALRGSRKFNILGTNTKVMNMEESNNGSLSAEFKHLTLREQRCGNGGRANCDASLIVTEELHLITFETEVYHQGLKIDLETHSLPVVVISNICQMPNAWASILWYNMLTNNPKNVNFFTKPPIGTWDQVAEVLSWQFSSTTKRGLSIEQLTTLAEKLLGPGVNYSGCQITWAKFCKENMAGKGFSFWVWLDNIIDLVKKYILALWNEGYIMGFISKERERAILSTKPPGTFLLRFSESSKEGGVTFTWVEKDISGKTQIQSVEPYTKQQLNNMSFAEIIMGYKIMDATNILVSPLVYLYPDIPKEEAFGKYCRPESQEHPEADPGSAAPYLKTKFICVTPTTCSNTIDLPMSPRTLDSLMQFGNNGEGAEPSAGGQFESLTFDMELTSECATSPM
T2 sequence (P42227 whole entry): as the sequence (P40763 whole entry) above, with E760D counted along it
Chain of GST protein (P08515 whole entry): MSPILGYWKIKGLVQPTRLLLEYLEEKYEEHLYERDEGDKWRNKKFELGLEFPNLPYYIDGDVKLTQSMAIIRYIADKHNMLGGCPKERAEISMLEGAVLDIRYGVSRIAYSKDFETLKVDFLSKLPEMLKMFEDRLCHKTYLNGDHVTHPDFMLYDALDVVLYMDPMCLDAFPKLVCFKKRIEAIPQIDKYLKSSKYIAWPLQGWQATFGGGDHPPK

O=C1NC(=NS(=O)(=O)c2cccc3ccccc23)S/C1=C\c1ccc(Br)cc1 [PS2, Pitstop2]
effect of clathrin inhibitor on ST3G12-PS uptake ([1]; 30 uM and 60 uM): inhibited

CCCCC[C@@H](O)[C@H]1C(=O)O[C@H](C)[C@@H](O)/C=C/C=C/C=C/C=C/C=C(\C)[C@@H](O)C[C@H](O)C[C@H](O)C[C@H](O)C[C@H](O)C[C@H](O)C[C@@H]1O [filipin]
effect of caveolin inhibitor on ST3G12-PS uptake ([1]; 0.5 ug/ml): little effect | effect of caveolin inhibitor on ST3G12-PS uptake ([1]; 1.0 ug/ml): greater effect

B1: ST3G12: fully human anti-STAT3 antibody, heavy/light chain variable domains SEQ ID NO. 3/SEQ ID NO. 4 (antibody, V domains shown)
VH: QVQLVQSGAEVKKPGASVKVSCKASGYTFTSYYMHWVRQAPGQGLEWMGIINPSGGSTSYAQKFQGRVTMTRDTSTSTVYMELSSLRSEDTAVYYCARSDYVHSFDIWGQGTMVTVSS
VL: QPVLTQPPSASALLGASIKLTCTLSSEHSTYTVEWYQQRPGRSPQYIMNVKSDGSYNKGDGIPDRFMGSSSGADRYLTFSNLQSDDEAEYHCGESHRIDGQVGVVFGGGTKLTVL
binding to HeLa cell line ([2]; HeLa cells, FIG. 3C): strong binding | STAT3 binding in MDA-MB-468 cells ([2]; MDA-MB-468 cells, FIG. 3A): bound STAT3 | STAT3 binding in U251 cells ([2]; U251 cells, FIG. 3B / 3C): bound STAT3; also recorded: strong binding | cell penetration / internalization by microscopy [3]: no internalization | CI [4]: 18.7 mL/day/kg | T ½ [4]: 76.5 h | penetration of tumor spheroids [5]: did not | binding to GST protein [6]: No binding | antibody binding to U251 cells, naked versus conjugated [7]: considerably lower | binding to CT-26 mouse cell line ([8]; CT-26 cells): able to recognize mouse STAT3 | binding to MC-38 mouse cell line ([8]; MC-38 cells): able to recognize mouse STAT3 | effect on STAT3 phosphorylation in MCF-10A cells ([9]; FIG. 8A): little to no effect | effect on STAT3 phosphorylation in MCF-7 cells ([9]; FIG. 8B): little to no effect | AUC (0-336 hr) [10]: 254.6 µg·days/mL | Cmax [10]: 79.7 µg/mL | Vs s [10]: 0.0833 L/kg | Rmax [11]: 174 | Ka ([11]; 1:1 (Langmuir) binding model): 59700 M⁻¹ s⁻¹ | Kd ([11]; 1:1 (Langmuir) binding model): 0.000322 s⁻¹
